From publication doi:10.1101/2023.02.23.529646 (bioRxiv, 2023)
Positions count from the first letter of the chain named.

Columns and labels:
ACAD9_(A184S) = biological target: T1, ACAD9_(A184S) (human, UniProt Q9H845 38-621, A184S); assay: dynamic light scattering
T1 sequence: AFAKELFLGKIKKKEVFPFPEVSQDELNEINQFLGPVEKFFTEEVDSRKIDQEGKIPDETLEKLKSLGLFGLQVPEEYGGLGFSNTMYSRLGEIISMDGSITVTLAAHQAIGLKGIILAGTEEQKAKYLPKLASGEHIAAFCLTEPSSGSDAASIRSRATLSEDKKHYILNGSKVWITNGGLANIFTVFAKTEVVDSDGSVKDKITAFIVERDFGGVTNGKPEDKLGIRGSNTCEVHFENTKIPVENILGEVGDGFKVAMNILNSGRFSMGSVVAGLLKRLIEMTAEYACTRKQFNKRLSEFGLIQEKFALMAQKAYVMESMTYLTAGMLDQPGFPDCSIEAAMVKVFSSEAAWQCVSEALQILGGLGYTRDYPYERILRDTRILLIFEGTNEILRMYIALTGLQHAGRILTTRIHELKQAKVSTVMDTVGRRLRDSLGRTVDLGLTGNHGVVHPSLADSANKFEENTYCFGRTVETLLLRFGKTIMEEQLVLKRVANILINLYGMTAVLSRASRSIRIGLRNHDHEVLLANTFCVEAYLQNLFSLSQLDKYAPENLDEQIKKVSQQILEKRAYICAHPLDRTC

ACAD9_(SR194TS) = biological target: T2, ACAD9_(SR194TS) (human, UniProt Q9H845 38-621, SR194TS); assay: dynamic light scattering
T2 sequence: T1 sequence with S147A, S157T, R158S

ACAD9_(A184S/SR194TS) = biological target: T3, ACAD9_(A184S/SR194TS) (human, UniProt Q9H845 38-621, A184S | SR194TS); assay: mass photometry
T3 sequence: T1 sequence with S157T, R158S

ACAD9WT (res. 38-621) = biological target: T4, ACAD9WT (res. 38-621) (human, UniProt Q9H845 38-621); assay: cryo-EM structure
T4 sequence: T1 sequence with S147A

B1: ECSIT_(CTER) (residues 221-431) (domain or fragment)
chain: QDPVELAMFGLRHMEPDLSARVTIYQVPLPKDSTGAADPPQPHIVGIQSPDQQAALARHNPARPVFVEGPFSLWLRNKCVYYHILRADLLPPEEREVEETPEEWNLYYPMQLDLEYVRSGWDNYEFDINEVEEGPVFAMCMAGAHDQATMAKWIQGLQETNPTLAQIPVVFRLAGSTRELQTSSAGLEEPPLPEDHQEEDDNLQRQQQGQS
Question: Which results are given for B1?
Answer: binding result (ACAD9_(A184S)): binds; binding result (ACAD9_(SR194TS)): binds; binding result (ACAD9_(A184S/SR194TS)): binds; stoichiometry N (ACAD9WT (res. 38-621)): 1 ECSIT_(CTER) per ACAD9 protomer
